The target of the assay is T1, exemplary recombinant polypeptide trimer: RSV F protein peptide (residues 1 to 520, RSV A2 strain) fused to … (respiratory syncytial virus A2 strain; …, UniProt P02452 1156-1464).
T1 construct: range 1-520;domain: C-propeptide of α1 collagen; Furin processing (F2/F1, loss of pep27) is not described for the tested protein; also called RSV F-Trimer; exemplary fusion peptide comprising an RSV F protein peptide
Nature of the assay: BLI (ForteBio Octet QKe); palivizumab 5 µg/mL on Protein A sensors, 2-fold dilutions of fusion peptide from 20 µg/mL, 1:1 model. A general note: In BLI a coated tip is dipped into the sample, and binding shifts an interference pattern.

One molecule from patent publication US20230256076A1 (SICHUAN CLOVER BIOPHARMACEUTICALS, published 2023) can be followed below.

The Kd is the equilibrium constant for the complex coming apart.

T1 sequence (P02452 1156-1464): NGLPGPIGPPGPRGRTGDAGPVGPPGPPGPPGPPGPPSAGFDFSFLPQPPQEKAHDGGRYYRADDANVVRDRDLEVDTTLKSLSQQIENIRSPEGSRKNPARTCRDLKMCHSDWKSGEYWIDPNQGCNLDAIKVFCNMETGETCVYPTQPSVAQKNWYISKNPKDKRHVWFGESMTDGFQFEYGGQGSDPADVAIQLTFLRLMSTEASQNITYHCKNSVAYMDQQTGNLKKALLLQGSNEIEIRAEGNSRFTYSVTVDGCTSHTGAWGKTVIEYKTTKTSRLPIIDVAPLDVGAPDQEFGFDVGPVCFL

B1: palivizumab (antibody, V domains shown)
VH: QVTLRESGPALVKPTQTLTLTCTFSGFSLSTSGMSVGWIRQPPGKALEWLADIWWDDKKDYNPSLKSRLTISKDTSKNQVVLKVTNMDPADTATYYCARSMITNWYFDVWGAGTTVTVSS
VL: DIQMTQSPSTLSASVGDRVTITCKCQLSVGYMHWYQQKPGKAPKLLIYDTSKLASGVPSRFSGSGSGTEFTLTISSLQPDDFATYYCFQGSGYPFTFGGGTKLEIK
With B1, the Kd is less than 1 pM.
